The target of assay [1] is CD33SP-OKT3scFv-CD28TC (鼠抗人CD3抗体 OKT3单链抗体, shown on CHO cells). Nature of the assay: flow cytometry, 40 nM Biotin-Protein L on CHO cells transfected with OKT3scFv, Streptavidin PE.
In assay [2] the target is 全长的人CD226 (hCD226) on Jurkat cells (human) (UniProt Q15762). The assay is described as follows: flow cytometry on Jurkat cells transfected with TIGIT and CD226.
Assay [3] deals with T1, PVR (Poliovirus receptor) expressed on CHO-OKT3 cells (Homo sapiens (Human)) (UniProt P15151).
T1 sequence: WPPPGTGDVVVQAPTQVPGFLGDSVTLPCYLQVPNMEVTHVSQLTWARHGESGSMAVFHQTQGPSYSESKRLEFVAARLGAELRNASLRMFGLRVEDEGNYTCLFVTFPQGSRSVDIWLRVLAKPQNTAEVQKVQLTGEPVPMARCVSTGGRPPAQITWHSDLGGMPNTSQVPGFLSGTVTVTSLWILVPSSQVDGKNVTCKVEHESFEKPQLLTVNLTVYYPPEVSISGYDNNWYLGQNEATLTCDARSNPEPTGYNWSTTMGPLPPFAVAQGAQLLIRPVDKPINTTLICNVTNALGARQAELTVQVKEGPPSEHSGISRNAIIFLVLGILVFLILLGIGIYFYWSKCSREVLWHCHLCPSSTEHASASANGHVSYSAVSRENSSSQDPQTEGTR
Nature of the assay: flow cytometry, 40 nM TIGIT-Fc on CHO-OKT3 cells transfected with PVR, anti-human Fc-PE.

For three molecules, 阳性率 (percent positive cells) and 细胞阳性率 (percent positive cells) results are on record in patent publication CN111748580A.

Chain of CD33SP-OKT3scFv-CD28TC (鼠抗人CD3抗体 OKT3单链抗体, shown on CHO cells) (scFv, as listed by the source): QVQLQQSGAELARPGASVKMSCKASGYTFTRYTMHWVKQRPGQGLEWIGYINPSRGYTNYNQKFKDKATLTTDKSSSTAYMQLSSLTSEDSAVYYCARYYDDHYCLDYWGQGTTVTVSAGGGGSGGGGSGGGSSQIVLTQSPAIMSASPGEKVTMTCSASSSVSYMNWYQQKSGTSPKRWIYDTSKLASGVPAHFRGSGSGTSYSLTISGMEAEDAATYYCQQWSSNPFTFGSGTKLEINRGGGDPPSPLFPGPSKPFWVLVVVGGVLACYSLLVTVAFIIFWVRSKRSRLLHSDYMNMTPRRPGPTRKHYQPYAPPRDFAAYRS
Chain of UniProt Q15762 (Q15762 19-336 limits assumed): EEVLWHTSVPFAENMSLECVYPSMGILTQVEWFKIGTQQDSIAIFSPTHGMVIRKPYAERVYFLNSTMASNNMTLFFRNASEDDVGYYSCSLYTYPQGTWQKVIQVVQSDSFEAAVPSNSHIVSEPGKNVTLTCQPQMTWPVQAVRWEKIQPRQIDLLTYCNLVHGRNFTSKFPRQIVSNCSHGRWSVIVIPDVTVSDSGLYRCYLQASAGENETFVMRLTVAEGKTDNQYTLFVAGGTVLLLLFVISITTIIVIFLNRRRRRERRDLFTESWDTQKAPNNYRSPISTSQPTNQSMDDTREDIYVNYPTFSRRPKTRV

Biotin-Protein L (金斯瑞生物科技, 货号 M00097) gave a 阳性率 (percent positive cells) in assay [1] of 42.6%.

For “anti-CD226 PE (R&D Systems, Inc. #FAB666P) (antibody)”, in assay [2], the 细胞阳性率 (percent positive cells) was found to be 12.7%.

B1: TIGIT-Fc蛋白 (Fc fusion, UniProt Q495A1 22-141, looked up, not shown: a dimerising Fc or GST)
chain: MMTGTIETTGNISAEKGGSIILQCHLSSTTAQVTQVNWEQQDQLLAICNADLGWHISPSFKDRVAPGPGLGLTLQSLTVNDTGEYFCIYHTYPDGTYTGRIFLEVLESSVAEHGARFQIP
In assay [3], B1 came in with a 阳性率 (percent positive cells) of 93.2%.
